In assay [1] the target is T1, mouse matriptase-2 ECD protein his tag (mouse, UniProt Q9DBI0 80-811).
T1 construct: aa 80-811 of Q9DBI0 with C-terminal linker and His tag; also called mouse MTP-2 ECD; moMTP-2
T1 sequence: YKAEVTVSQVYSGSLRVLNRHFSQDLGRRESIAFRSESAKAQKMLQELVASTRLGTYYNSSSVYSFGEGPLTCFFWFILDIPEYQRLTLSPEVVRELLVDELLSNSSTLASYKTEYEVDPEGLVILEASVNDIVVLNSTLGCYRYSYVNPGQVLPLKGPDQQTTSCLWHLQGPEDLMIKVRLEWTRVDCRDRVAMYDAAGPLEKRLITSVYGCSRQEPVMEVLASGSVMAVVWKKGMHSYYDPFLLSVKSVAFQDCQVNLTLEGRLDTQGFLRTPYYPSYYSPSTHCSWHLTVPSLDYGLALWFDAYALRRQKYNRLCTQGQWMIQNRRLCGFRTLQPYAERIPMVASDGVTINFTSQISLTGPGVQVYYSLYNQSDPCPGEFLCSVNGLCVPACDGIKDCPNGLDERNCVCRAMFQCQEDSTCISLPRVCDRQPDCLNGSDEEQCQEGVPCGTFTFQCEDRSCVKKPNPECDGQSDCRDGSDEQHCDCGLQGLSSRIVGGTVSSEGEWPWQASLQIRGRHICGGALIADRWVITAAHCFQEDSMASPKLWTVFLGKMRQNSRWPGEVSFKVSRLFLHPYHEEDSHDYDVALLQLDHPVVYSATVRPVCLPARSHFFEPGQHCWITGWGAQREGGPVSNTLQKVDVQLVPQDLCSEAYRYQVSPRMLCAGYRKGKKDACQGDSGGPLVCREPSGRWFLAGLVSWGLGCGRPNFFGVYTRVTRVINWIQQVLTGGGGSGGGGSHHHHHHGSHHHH
The experiment in a line: HTRF competition with 647-labelled aprotinin for mouse MTP-2 protein. The text has this: Aprotinin is a pan serine protease inhibitor and is known to occupy the active site of serine proteases. A HTRF competition assay against labelled aprotinin confirmed that NORI-003, NORI-006, NORI-008 and NORI-011 were binding at or near this same site and competed with aprotinin for binding to human MTP-2 protein. […] This was confirmed by their lack of competition of aprotinin against moMTP-2 while IC50 values in the enzymatic assay were similar to those of NORI-011. […] FIG. 8. Table L.
Antibodies were titrated into HTRF buffer (DPBS (Gibco—14190144) with 0.1% BSA (Sigma—A7906) and potassium fluoride 0.53M (Sigma—60240-250 G)) at 4× conc with a starting concentration of 200 nM. 5 μL/w of antibodies were added to 384-well white plates (Greiner—784904). Purified proteins of huMTP-2 and moMTP-2 were diluted into HTRF buffer (huMTP-2=40 nM and moMTP-2=240 nM) 4× final conc and plate 5 μL/w. Anti-MTP-2 mAb (NORI-037) in molgG1 backbone was then diluted to 1.2 nM 4× final conc with DELFIA Eu-N1 Rabbit Anti-Mouse-IgG antibody (AD0207) at a 1:1000 dilution 4× final conc in HTRF buffer. Finally, dilute 647-labelled Aprotinin (Sigma—A3428) in HTRF buffer to 20 nM 4× final conc and plate 5 μL/w. Incubate plates for 3 hours or more at RT in the dark. Read plate using HTRF 100 flashes protocol on the EnVision plate reader at 1H 2H and 3H. (Ex: 340 nm Em1: 620 nm Em2: 665 nm).

Assay [2] deals with T1, mouse matriptase-2 ECD protein his tag. Briefly: SPR (Biacore 8K), huIgG4PE captured on anti-human Fc, MTP-2 ECD as analyte, 1:1 fit; off-rate too slow to be determined. As to the method:
(§1) Off-rate screening was performed by surface plasmon resonance (SPR), using a Biacore 8K system (GE Healthcare). Anti-human Fc mix (˜1000 RU) were immobilised in both active and reference channels in HBS-P+ buffer (GE BR100671) pH 7.4. Anti-MTP-2 hulgG4PE antibodies were then captured for 60 sec at 10 μl/min at 1 μg/ml concentration (approximatively 35 and 50 RU were captured) only on the active channel. MTP-2 ECD protein analytes were then injected (at 100, 25, 6.25, 1.56 and 0 nM concentrations) for 120 sec (association time) at 30 μl/min and dissociation monitored for 600 sec. Multiple cycle kinetics mode was used with all 8 channels being used. Reference and background were subtracted from the sensorgrams for each antibody and data was fitted using a 1:1 interaction model in the Biacore evaluation software. Rmax, ka, kd globally fitted, RI=0.

Assay [3] concerns the target T2, human matriptase-2 mask ECD protein his tag (human, UniProt Q8IU80 78-576).
T2 construct: MTP-2 ECD without the serine protease domain, with C-terminal linker and His tag; also called headless huMTP-2 ECD 78-576 aa; headless human MTP-2 ECD
T2 sequence: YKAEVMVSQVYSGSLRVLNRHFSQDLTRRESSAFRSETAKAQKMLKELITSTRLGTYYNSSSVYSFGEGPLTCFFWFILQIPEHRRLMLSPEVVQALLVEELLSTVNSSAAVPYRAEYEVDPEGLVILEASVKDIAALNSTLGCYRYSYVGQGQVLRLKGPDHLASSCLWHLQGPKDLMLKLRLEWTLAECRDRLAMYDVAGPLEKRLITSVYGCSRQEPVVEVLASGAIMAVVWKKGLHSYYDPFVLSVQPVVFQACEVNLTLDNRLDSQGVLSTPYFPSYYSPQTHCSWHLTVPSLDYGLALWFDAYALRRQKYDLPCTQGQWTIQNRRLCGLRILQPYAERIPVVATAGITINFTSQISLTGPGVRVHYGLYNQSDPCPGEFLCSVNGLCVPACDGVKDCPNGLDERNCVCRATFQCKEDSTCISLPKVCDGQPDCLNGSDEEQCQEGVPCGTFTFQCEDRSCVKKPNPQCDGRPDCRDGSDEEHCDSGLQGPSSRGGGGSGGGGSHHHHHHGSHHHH
The experiment in a line: SPR, antibody captured, headless ECD as analyte. As to the method: as §1
Binding was also assessed using the above SPR method with “headless” huMTP-2 ECD 78-576 aa instead of the full ECD. Headless ECD corresponds to the MTP-2 ECD without the serine protease domain.
Background: In SPR one partner is held on a chip, and binding of the other changes the refractive index at the surface.

Assay [4] concerns the target T1, mouse matriptase-2 ECD protein his tag. The experiment in a line: SPR (Biacore 8K), huIgG4PE captured on anti-human Fc, MTP-2 ECD as analyte, 1:1 fit; true KD could be < the value shown. On the procedure: as §1

B1: NORI-008 (antibody, human IgG4 S228P, kappa, V domains shown)
VH: QVQLQESGPGLVKPSETLSLTCSVSGGSVSSGRYYWTWIRQPPGKGLEWIGYISNSGNTNYNPSLKSRVTISLDTSKKQFSLSLSAVTAADTAVYYCARGFIYDYWFDPWGQGSLVTVSS
VL: DSQMTQSPSSLSASVGDRVTITCQASQDIDNYLNWYQQRPGKAPKLLIYDASKLETGVPSRFSGSGSGTDFTFTISSLQPEDFATYYCQQYGNLPITFGQGTRLDIKR
notes: human IgG4PE, kappa, in the in vitro assays; a mouse IgG1 format was used in one in vivo study only; also called NORI-008 hulgG4PE; NORI-008 IgG
Broadly, the IC50 is the point on the concentration scale where inhibition reaches its midpoint. Low values mean higher potency, high ones lower potency. As for B1, the IC50 in assay [1] amounted to 1.42 nM.

B2: NORI-011 (antibody, human IgG4 S228P, lambda)
heavy: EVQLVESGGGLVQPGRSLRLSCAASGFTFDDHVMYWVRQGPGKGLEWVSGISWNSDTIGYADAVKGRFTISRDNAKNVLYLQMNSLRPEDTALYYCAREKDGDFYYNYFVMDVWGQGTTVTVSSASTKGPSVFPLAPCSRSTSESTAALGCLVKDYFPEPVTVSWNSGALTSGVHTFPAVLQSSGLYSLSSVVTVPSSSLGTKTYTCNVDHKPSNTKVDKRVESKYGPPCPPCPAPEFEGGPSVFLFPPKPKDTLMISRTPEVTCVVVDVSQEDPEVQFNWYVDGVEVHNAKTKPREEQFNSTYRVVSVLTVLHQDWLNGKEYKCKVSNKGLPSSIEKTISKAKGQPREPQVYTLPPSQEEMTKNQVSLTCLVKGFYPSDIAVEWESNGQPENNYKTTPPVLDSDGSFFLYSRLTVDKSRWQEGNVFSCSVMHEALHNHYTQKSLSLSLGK
light: QSALTQPPSASGSPGQSVTISCTGTSSDVGFYNFVSWYQQHPDKAPKVMIYEVSKRPSGVPDRFSGSKSGNTASLTVSGLQAEDEADYYCSSYAGSNKVVFGGGTKLTVLGQPKAAPSVTLFPPSSEELQANKATLVCLISDFYPGAVTVAWKADSSPVKAGVETTTPSKQSNNKYAASSYLSLTPEQWKSHRSYSCQVTHEGSTVEKTVAPTECS
notes: human IgG4PE, lambda; NORI-010 with a P124S mutation in the VH domain
As to B2, the IC50 in assay [1] is 120 nM.

B3: NORI-013 (antibody, human IgG4 S228P, lambda, V domains shown)
VH: EVQLVESGGGLIQAGRSLRLSCAASGFTFDEHVIYWVRQIPGKGLEWISSISWKSDIIAYADSVKGRFTISRDNAKNALYLQMNSLRAEDTALYYCAREKDGDFYYYYFAMDVWGQGTTVTVSS
VL: QSALTQPPSASGSPGQSVTLSCTGTSSDVGYYNYVSWYLQHPGKAPKLMIYEVSKRPSGVPDRFSGSKSANTASLTVSGLQAEDEADYYCSSYAGSNKVVFGGGTKVTVLG
notes: human IgG4PE, lambda
What is called koff is a measure of how fast the partners let go of each other. A lower koff goes with a long-lived complex. In general, Kd refers to the equilibrium constant for the complex coming apart. A higher Kd goes with lower affinity. Take B3: the koff in assay [2] was at most 1e-05 s⁻¹. Also, the binding result in assay [3] was “no binding (tested: analyte up to 100 nM)”. In addition, in assay [4], the Kd is at most 0.949 nM.

B4: NORI-014 (antibody, human IgG4 S228P, lambda, V domains shown)
VH: EVQLVESGGGLIQAGRSLRLSCAASGFTFDEHVMYWVRQIPGKGLEWISSITWKSDIIAYADSVKGRFTISRDNAKNALYLQMNSLRAEDTALYYCAREKDGDFYYYYFAMDVWGQGTTVTVSS
VL: QSALTQPPSASGSPGQSVTLSCTGTSSDVGYYNYVSWYLQHPGKAPKLMIYEVSKRPSGVPDRFSGSKSANTASLTVSGLQAEDEADYYCSSYAGSNKVVFGGGTKVTVLG
notes: human IgG4PE, lambda
Consider B4, for which the koff in assay [2] was at most 1e-05 s⁻¹. The binding result in assay [3] was “no binding (tested: analyte up to 100 nM)”. The Kd in assay [4] is at most 0.83 nM.

The record behind these values is patent publication US20230025129A1 (KYMAB, published 2023).
